Data taken from US20150011730A1.

Tests used:
[1] = target: CDK2/cyclin A (as used in the binding assay) (UniProt P24941)
[2] = target: CDK4/cyclin D1 (as used in the binding assay) (UniProt P11802)
Sequence of CDK4/cyclin D1 (as used in the binding assay) (P11802 whole entry, chain 1 of 2): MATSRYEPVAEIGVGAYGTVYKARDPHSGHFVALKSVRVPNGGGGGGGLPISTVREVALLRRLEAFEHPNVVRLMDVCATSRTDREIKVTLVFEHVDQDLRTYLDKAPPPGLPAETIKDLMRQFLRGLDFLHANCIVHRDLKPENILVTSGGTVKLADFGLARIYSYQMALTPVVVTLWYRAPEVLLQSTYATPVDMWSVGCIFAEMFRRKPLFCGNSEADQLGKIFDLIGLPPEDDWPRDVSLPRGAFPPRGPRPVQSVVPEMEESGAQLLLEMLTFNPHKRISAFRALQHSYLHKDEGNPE
Sequence of CDK4/cyclin D1 (as used in the binding assay) (P24385 whole entry, chain 2 of 2, further chain): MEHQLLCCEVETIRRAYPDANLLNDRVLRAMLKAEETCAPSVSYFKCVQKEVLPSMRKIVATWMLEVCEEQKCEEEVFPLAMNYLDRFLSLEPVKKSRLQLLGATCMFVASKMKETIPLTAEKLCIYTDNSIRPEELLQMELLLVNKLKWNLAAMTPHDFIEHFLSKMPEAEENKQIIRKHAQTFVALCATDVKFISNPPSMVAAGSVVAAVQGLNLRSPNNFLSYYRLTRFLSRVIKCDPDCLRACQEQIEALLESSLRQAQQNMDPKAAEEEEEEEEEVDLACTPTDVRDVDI

Row | Substance | IC50 [1] | IC50 [2]
1 | R{bLeu}NMeF (peptide) | 0.505 µM | 61.2 µM
2 | R{bLeu}NMeF-NH2 (peptide) | 0.405 µM | 89.7 µM
